From paper PMC6614797

Assays:
RNA polymerase (E. coli) = RNA polymerase (E. coli) (UniProt P0A7Z4); experiment: SEC
[1] = target: NusA-AR2^D443C labeled with fluorescein-5-maleimide (E. coli) (UniProt P0AFF6); experiment: fluorescence polarisation

percent of S4 coeluted with the rrnG-TAC (RNA polymerase (E. coli)) [%]	percent of SuhB coeluted with the rrnG-TAC (RNA polymerase (E. coli)) [%]	Kd [1] [µM]	Substance
25	–	–	ribosomal protein S4 (from UniProt P0A7V8 1-206) (natural protein)
–	20	83	inositol monophosphatase SuhB (from UniProt P0ADG4 1-267) (natural protein)
